# From paper PMC9532426, “Autophagy induction promoted by m6A reader YTHDF3 through translation upregulation of FOXO3 mRNA”
# T1: YTHDF3 (mouse, UniProt Q8BYK6 1-585)
# T1 sequence: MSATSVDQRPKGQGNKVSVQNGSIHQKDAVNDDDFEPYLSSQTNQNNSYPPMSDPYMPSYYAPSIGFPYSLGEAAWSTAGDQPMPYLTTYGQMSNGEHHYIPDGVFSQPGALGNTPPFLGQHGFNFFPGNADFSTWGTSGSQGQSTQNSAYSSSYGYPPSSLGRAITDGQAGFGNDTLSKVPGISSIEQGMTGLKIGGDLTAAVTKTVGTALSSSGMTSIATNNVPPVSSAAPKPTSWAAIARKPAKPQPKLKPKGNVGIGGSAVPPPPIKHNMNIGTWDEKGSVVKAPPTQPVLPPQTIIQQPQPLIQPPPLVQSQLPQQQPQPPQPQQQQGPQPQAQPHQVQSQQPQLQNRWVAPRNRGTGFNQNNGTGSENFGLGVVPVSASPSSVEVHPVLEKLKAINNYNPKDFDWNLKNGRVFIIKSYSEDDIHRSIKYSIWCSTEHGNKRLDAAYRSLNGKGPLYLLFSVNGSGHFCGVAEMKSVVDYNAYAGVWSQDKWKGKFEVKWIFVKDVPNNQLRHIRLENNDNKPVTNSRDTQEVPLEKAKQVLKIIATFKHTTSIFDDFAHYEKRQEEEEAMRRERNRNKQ
# B1: Foxo3-CDS-m6A-biotin-RNAProbe 1 (ssRNA)
# RNA: GUGACUUGGACCUGGAC
# modifications: m6A at A4, A10, A16 (from text sites 2151, 2158, 2163 nt; the modified probe line is not in the material)
# Molecular target: T1, YTHDF3
# Test: EMSA; LightShift Chemiluminescent RNA EMSA kit; 20 pmol RNA, 6 ug YTHDF3, room temperature 30 min; 6% TBE gel, 0.5x TBE; buffer salt and pH not stated
# Conditions: protein: commercial; label: 5' biotin
binder,measurement,value
B1,binding result,binds
